Consider 9 molecules from US20230165967A1 (TAE LIFE SCIENCES, published 2023).

Like-named read-outs stand apart in the source and are kept apart here.

The target in test [1] is T1, recombinant human soluble ECD of hCD16a/FCGRIIIA (human, UniProt P08637 17-208).
T1 construct: extracellular domain; also called FcγRIIIa
Put plainly: ELISA: plate coated with recombinant human CD16a/FCGRIIIA ECD, antibody titrated 0.005-80 ug/ml, HRP goat anti-human Fc, OD650. (In general: In an ELISA, binding on a coated surface is turned into a signal by an enzyme label.)

For test [2], the target named is T2, recombinant human soluble ECD of CD64/FCGRIA (human, UniProt P12314 16-292).
T2 construct: extracellular domain; also called FcγRI
T2 sequence (P12314 16-292): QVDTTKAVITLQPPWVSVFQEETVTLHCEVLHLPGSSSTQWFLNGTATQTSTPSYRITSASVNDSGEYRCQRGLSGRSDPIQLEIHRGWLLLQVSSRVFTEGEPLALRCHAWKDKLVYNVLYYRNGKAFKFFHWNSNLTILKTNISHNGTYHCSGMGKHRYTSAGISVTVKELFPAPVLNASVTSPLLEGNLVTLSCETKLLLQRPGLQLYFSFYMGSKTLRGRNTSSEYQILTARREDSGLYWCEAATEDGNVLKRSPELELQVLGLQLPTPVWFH
Kind of test: ELISA: plate coated with recombinant human CD64/FCGRIA ECD, antibody titrated, HRP goat anti-human Fc, OD650.

The target in test [3] is T3, recombinant human FcRn (Sino Biological) (human, UniProt P55899 24-297; P61769 21-119). Kind of test: ELISA at pH 6.0: plate coated with recombinant human FcRn, antibody titrated, HRP goat anti-human Fc, OD650.
T3 sequence (P55899 24-297 limits assumed, chain 1 of 2): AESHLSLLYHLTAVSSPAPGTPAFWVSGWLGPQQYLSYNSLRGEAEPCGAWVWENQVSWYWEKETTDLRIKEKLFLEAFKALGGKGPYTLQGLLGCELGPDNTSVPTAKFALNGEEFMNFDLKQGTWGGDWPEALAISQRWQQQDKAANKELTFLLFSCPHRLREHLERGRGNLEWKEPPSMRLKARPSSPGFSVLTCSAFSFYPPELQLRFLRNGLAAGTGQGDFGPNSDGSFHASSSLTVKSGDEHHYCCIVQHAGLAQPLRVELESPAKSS
T3 sequence (P61769 21-119 limits assumed, chain 2 of 2): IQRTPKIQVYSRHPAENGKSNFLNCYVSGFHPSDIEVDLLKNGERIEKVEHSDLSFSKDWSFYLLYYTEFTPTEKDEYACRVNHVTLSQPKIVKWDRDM
In test [4] the target is T4, recombinant human CDH3 full-length (human, UniProt P22223 25-829, limits assumed).
T4 construct: plate-coated recombinant protein, not on cells
Put plainly: ELISA: plate coated with recombinant human full-length CDH3, antibody titrated 0.0003-20 nM, HRP goat anti-human Fc, OD650.

Test [5] has as its target T2, recombinant human soluble ECD of …. Kind of test: ELISA: plate coated with recombinant human CD64/FCGRIA ECD, antibody titrated, HRP goat anti-human Fc, OD650. This is another data set of the same source.
In test [6] the target is T5, human C1q (sigma Cat #C1740) (human, UniProt P02745 23-245; P02746 28-253; P02747 29-245). Put plainly: ELISA: plate coated with antibody at 1 ug/ml, human C1q titrated 0.625-40 ug/ml, rabbit anti-human C1q then HRP goat anti-rabbit, OD650.
T5 sequence (P02745 23-245 limits assumed, chain 1 of 3): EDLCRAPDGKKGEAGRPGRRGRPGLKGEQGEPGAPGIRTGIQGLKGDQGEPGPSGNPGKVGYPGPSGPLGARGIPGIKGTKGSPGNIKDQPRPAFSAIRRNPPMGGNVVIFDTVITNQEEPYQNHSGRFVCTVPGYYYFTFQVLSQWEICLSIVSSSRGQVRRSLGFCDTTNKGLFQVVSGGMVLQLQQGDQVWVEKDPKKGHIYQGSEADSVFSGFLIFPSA
T5 sequence (P02746 28-253 limits assumed, chain 2 of 3): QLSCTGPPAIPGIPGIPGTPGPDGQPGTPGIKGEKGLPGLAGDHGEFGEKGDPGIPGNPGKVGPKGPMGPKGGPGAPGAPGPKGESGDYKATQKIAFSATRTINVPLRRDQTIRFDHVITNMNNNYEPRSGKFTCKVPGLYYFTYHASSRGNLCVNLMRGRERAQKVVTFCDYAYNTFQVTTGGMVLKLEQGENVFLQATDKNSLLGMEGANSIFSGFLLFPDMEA
T5 sequence (P02747 29-245 limits assumed, chain 3 of 3): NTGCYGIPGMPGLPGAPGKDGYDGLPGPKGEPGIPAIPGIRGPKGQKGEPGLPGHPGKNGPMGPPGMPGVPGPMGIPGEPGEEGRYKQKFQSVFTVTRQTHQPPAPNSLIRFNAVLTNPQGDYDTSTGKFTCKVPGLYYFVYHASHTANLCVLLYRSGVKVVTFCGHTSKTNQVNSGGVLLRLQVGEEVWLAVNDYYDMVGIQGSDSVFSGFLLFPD
The target of test [7] is T6, FcγRIIa (CD32) (Sino Biological, cat #10374-H08H) (UniProt P12318 34-218).
T6 sequence (looked up): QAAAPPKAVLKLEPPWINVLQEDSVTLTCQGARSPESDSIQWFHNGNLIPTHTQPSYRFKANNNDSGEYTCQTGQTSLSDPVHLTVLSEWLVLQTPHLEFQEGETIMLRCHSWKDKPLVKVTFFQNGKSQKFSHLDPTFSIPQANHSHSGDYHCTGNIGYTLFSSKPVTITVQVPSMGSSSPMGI
Put plainly: Sandwich ELISA: anti-His capture of His-tagged FcγRIIA mixed with titrated antibody, HRP goat anti-human IgG Fc, OD650.

The target in test [8] is T1, recombinant human soluble ECD of …. Kind of test: ELISA: plate coated with recombinant human CD16a/FCGRIIIA ECD, antibody titrated 0.005-80 ug/ml, HRP goat anti-human Fc, OD650. The source holds these as a separate data set.
In test [9] the target is T3, recombinant human FcRn (Sino Biological). Kind of test: ELISA at pH 6.0: plate coated with recombinant human FcRn, antibody titrated, HRP goat anti-human Fc, OD650. The source holds these as a separate data set.
For test [10], the target named is T7, recombinant human soluble extracellular domain (ECD) of Trop2 (human, UniProt P09758 27-274).
T7 construct: extracellular domain; Bought protein
T7 sequence (looked up): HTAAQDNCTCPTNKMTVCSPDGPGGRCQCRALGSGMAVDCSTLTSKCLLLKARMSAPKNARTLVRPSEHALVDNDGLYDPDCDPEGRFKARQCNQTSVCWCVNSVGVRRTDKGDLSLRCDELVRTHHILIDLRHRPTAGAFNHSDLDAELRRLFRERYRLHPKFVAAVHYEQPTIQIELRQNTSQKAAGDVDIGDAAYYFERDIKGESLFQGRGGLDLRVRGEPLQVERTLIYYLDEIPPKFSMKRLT
Kind of test: ELISA: plate coated with recombinant human Trop2 ECD, antibody titrated 0.0003-20 nM, HRP goat anti-human Fc, OD650.

In test [11] the target is T3, recombinant human FcRn (Sino Biological). Kind of test: ELISA at pH 6.0: plate coated with recombinant human FcRn, antibody titrated, HRP goat anti-human Fc, OD650. This is another data set of the same source.
For test [12], the target named is T6, FcγRIIa (CD32) (Sino Biological, cat …). Put plainly: Sandwich ELISA: anti-His capture of His-tagged FcγRIIA mixed with titrated antibody, HRP goat anti-human IgG Fc, OD650. The source holds these as a separate data set.
Test [13] has as its target T1, recombinant human soluble ECD of …. Kind of test: ELISA: plate coated with recombinant human CD16a/FCGRIIIA ECD, antibody titrated 0.005-80 ug/ml, HRP goat anti-human Fc, OD650. The source holds these as a separate data set.
For test [14], the target named is T5, human C1q (sigma Cat #C1740). Kind of test: ELISA: plate coated with antibody at 1 ug/ml, human C1q titrated 0.625-40 ug/ml, rabbit anti-human C1q then HRP goat anti-rabbit, OD650. This is another data set of the same source.
The target of test [15] is T2, recombinant human soluble ECD of …. Put plainly: ELISA: plate coated with recombinant human CD64/FCGRIA ECD, antibody titrated, HRP goat anti-human Fc, OD650. This is another data set of the same source.

T1 sequence (P08637 17-208): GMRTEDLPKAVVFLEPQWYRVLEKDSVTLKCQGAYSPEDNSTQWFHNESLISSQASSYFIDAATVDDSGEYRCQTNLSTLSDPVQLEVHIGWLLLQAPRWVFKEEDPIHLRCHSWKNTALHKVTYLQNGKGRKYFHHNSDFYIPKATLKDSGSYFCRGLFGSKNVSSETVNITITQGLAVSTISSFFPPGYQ

B1: Anti-EGFR Ab No. 3 Wild Type (antibody, human IgG1)
heavy: not shown
light: DIQMTQSPSSLSASVGDRVTITCRSSQNIVHSNGNTYLDWYQQTPGKAPKLLIYKVSNRFSGVPSRFSGSGSGTDFTFTISSLQPEDIATYYCFQYSHVPWTFGQGTKLQITREVAAPSVFIFPPSDEQLKSGTASVVCLLNNFYPREAKVQWKVDNALQSGNSQESVTEQDSKDSTYSLSSTLTLSKADYEKHKVYACEVTHQGLSSPVTKSFNRGEC
notes: human IgG1 constant region; also called Anti-EGFR Mab No. 3; anti-EGFR mAb No. 3
In the case of B1, the 50% effective concentration (EC50 (read off the curve)) – broadly, the concentration giving half of the maximal effect – in [1] was around 2 µg/mL; in [2] it was around 0.05 µg/mL. Besides, in test [3], the binding result is “binds”.

B2: Anti-EGFR Ab No. 3 L234A, L235A, L328C (antibody, human IgG1, L234A L235A)
heavy: QVQLQQSGAEVKKPGSSVKVSCKASGYTFTNYYIYWVRQAPGQGLEWIGGINPTSGGSNFNEKFKTRVTITADESSTTAYMELSSLRSEDTAFYFCTRQGLWFDSDGRGFDFWGQGTTVTVSSASTKGPSVFPLAPSSKSTSGGTAALGCLVKDYFPEPVTVSWNSGALTSGVHTFPAVLQSSGLYSLSSVVTVPSSSLGTQTYICNVNHKPSNTKVDKRVEPKSCDKTHTCPPCPAPEAAGGPSVFLFPPKPKDTLMISRTPEVTCVVVDVSHEDPEVKFNWYVDGVEVHNAKTKPREEQYNSTYRVVSVLTVLHQDWLNGKEYKCKVSNKACPAPIEKTISKAKGQPREPQVYTLPPSREEMTKNQVSLTCLVKGFYPSDIAVEWESNGQPENNYKTTPPVLDSDGSFFLYSKLTVDKSRWQQGNVFSCSVMHEALHNHYTQKSLSLSPGK
light: B1 light
notes: Fc variant; wild-type light chain, this heavy chain reads VDKRV where the wild type reads VDKKV; also called Anti-EGFR Mab No. 3 triple mutant; triple mutation L234A, L235A, and L328C
Regarding B2, the binding result in test [1] is recorded as “no binding (tested: 80 ug/mL)”.

B3: Anti-EGFR Ab No. 3 L234A, L235A (antibody, human IgG1, L234A L235A)
heavy: not shown
light: B1 light
notes: Fc variant; wild-type light chain; also called Anti-EGFR Mab No. 3 double mutant; double mutation L234A and L235A
Turning to B3, the “EC50 (read off the curve)” value in [2] was around 4 µg/mL. Besides, the binding result in test [3] is “binds”.

B4: Anti-EGFR Ab No. 3 L328C (antibody, human IgG1)
heavy: not shown
light: B1 light
notes: Fc variant; wild-type light chain, this heavy chain reads VDKRV where the wild type reads VDKKV; also called Anti-EGFR Mab No. 3 single mutant; single mutation L328C
Consider B4, for which the “EC50 (read off the curve)” value in test [2] is around 0.1 µg/mL.

B5: Anti-CDH3 Ab L234A, L235A, L328C (antibody, human IgG1, kappa, L234A L235A)
heavy: QVQLQQSGPGLVKPSQTLSLTCAISGDSVSSQSAAWNWIRQSPSRGLEWLGRIYYRSKWYNDYALSVKSRITINPDTSKNQFSLQLNSVTPEDTAVYYCARGEGYGREGFAIWGQGTLVTVSSASTKGPSVFPLAPSSKSTSGGTAALGCLVKDYFPEPVTVSWNSGALTSGVHTFPAVLQSSGLYSLSSVVTVPSSSLGTQTYICNVNHKPSNTKVDKRVEPKSCDKTHTCPPCPAPEAAGGPSVFLFPPKPKDTLMISRTPEVTCVVVDVSHEDPEVKFNWYVDGVEVHNAKTKPREEQYNSTYRVVSVLTVLHQDWLNGKEYKCKVSNKACPAPIEKTISKAKGQPREPQVYTLPPSREEMTKNQVSLTCLVKGFYPSDIAVEWESNGQPENNYKTTPPVLDSDGSFFLYSKLTVDKSRWQQGNVFSCSVMHEALHNHYTQKSLSLSPGK
light: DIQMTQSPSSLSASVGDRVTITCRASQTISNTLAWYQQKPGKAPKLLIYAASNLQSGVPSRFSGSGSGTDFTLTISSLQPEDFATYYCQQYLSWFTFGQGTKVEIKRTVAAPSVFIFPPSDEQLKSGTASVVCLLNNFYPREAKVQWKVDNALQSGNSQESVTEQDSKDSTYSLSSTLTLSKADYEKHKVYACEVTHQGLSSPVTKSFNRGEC
notes: Fc variant; wild-type light chain; also called Anti-CDH3 Mab triple mutant; triple mutation L234A, L235A, and L328C
Consider B5, for which the “EC50 (read off the curve)” value in test [4] was around 0.04 nM. In addition, the binding result in test [5] was “binds”; in test [6], “binds”; in test [7], “binds”; in test [8], “no binding (tested: 80 ug/ml)”; in test [9], “binds”.

B6: Anti-Trop2 Ab Wild Type (antibody, human IgG1, kappa)
heavy: not shown
light: DIQLTQSPSSLSASVGDRVSITCKASQDVSIAVAWYQQKPGKAPKLLIYSASYRYTGVPDRFSGSGSGTDFTLTISSLQPEDFAVYYCQQHYITPLTFGAGTKVEIKRTVAAPSVFIFPPSDEQLKSGTASVVCLLNNFYPREAKVQWKVDNALQSGNSQESVTEQDSKDSTYSLSSTLTLSKADYEKHKVYACEVTHQGLSSPVTKSFNRGEC
notes: human IgG1 constant region; also called Anti-Trop2 Mab; anti-TROP2 mAb
For B6, the “EC50 (read off the curve)” value in [10] is around 0.06 nM; in test [13], around 2 µg/mL; in test [15], around 0.08 µg/mL. The binding result in [11], in [12] and in test [14] was “binds” throughout.

B7: Anti-Trop2 Ab L328C (antibody, human IgG1, kappa)
heavy: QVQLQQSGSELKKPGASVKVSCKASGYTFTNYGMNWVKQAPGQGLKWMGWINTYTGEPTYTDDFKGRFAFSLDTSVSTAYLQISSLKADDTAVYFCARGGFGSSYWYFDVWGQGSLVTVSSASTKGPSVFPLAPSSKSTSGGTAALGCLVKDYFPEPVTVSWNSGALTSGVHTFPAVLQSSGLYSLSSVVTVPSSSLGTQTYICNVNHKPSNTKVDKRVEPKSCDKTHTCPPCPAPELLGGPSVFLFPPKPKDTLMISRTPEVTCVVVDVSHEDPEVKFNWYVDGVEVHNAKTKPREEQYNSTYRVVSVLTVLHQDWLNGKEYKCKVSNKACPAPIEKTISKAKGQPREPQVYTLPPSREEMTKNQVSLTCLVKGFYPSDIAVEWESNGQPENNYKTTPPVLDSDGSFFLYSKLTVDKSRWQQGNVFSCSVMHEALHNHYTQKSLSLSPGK
light: B6 light
notes: Fc variant; wild-type light chain; also called Anti-Trop2 Mab single mutant; single mutation L328C
For the molecule B7, the “EC50 (read off the curve)” value was around 0.06 nM in [10] and around 0.2 µg/mL in [15]. The binding result in test [11], in [12] and in [14] was “binds” each time.

B8: Anti-Trop2 Ab L234A, L235A (antibody, human IgG1, kappa, L234A L235A)
heavy: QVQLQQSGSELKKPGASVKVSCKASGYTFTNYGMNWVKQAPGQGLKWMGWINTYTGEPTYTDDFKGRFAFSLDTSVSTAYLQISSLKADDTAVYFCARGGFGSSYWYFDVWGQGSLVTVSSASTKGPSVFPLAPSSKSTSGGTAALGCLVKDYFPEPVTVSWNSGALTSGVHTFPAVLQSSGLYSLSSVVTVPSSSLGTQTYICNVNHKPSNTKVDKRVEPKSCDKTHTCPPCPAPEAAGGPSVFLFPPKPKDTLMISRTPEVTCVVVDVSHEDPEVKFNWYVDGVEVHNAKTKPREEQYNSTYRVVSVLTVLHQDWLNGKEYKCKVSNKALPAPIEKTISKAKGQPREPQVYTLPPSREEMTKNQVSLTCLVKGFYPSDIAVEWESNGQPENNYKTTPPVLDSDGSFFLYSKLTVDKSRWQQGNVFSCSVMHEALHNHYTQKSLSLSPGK
light: B6 light
notes: Fc variant; wild-type light chain; also called Anti-Trop2 Mab double mutant; double mutation L234A and L235A
Regarding B8, the figures for the “EC50 (read off the curve)” value in test [10] and in test [11] were around 0.06 nM and around 1 µg/mL, respectively. The binding result in test [12], in test [14] and in test [15] was “binds” throughout.

B9: Anti-Trop2 Ab L234A, L235A, L328C (antibody, human IgG1, kappa, L234A L235A)
heavy: QVQLQQSGSELKKPGASVKVSCKASGYTFTNYGMNWVKQAPGQGLKWMGWINTYTGEPTYTDDFKGRFAFSLDTSVSTAYLQISSLKADDTAVYFCARGGFGSSYWYFDVWGQGSLVTVSSASTKGPSVFPLAPSSKSTSGGTAALGCLVKDYFPEPVTVSWNSGALTSGVHTFPAVLQSSGLYSLSSVVTVPSSSLGTQTYICNVNHKPSNTKVDKRVEPKSCDKTHTCPPCPAPEAAGGPSVFLFPPKPKDTLMISRTPEVTCVVVDVSHEDPEVKFNWYVDGVEVHNAKTKPREEQYNSTYRVVSVLTVLHQDWLNGKEYKCKVSNKACPAPIEKTISKAKGQPREPQVYTLPPSREEMTKNQVSLTCLVKGFYPSDIAVEWESNGQPENNYKTTPPVLDSDGSFFLYSKLTVDKSRWQQGNVFSCSVMHEALHNHYTQKSLSLSPGK
light: B6 light
notes: Fc variant; wild-type light chain; also called Anti-Trop2 Mab triple mutant; triple mutation L234A, L235A, and L328C
As for B9, in test [10], the “EC50 (read off the curve)” value is around 0.06 nM. The binding result in test [11] was “binds”; in test [12] it was “binds”; in [13] it was “no binding (tested: 80 ug/ml)”; in [14] it was “binds”; in [15], “no binding (tested: 30 ug/ml)”.
